Laboratory results: PMC8699488, “Side-by-Side Comparison of Five Chelators for ^89Zr-Labeling of Biomolecules: Investigation of Chemical/Radiochemical Properties and Complex Stability” (Cancers, 2021)

How the values were obtained:
[1] = Determination of logD(7.4), distribution between n-octanol and phosphate buffer pH 7.4; format: physicochemical; conditions: n-octanol / 0.05-M phosphate buffer pH 7.4; 89Zr-labeled peptide-chelator conjugate
Description: To a mixture of 1-octanol (800 µL) and 0.05-M phosphate buffer (775 µL, pH 7.4), a solution of the respective ^89Zr-labeled peptide conjugate (5µL of the before-obtained product solution, 0.8–1.2 MBq, 0.37–0.45 nmol) was added. The mixture was vigorously shaken for two minutes. Afterwards, the phases were separated by centrifugation. Two hundred microliters of each, the organic and the aqueous, phase were measured in a gamma counter. Each experiment was performed at least thrice, each in duplicate.
The logD(7.4) values of the ^89Zr-labeled peptide–chelator conjugates were determined by their distribution coefficient between n-octanol and phosphate buffer at pH 7.4.

[2] = EDTA-based 89Zr complex challenge experiments (relative kinetic inertness, radio-HPLC); format: physicochemical; conditions: 10,000 eq. of EDTA, pH 7.0, 25 °C, transchelation monitored for up to 54 h by radio-HPLC
Description: For each challenge experiment, three separate solutions of EDTA (14.61 mg, 50 µmol EDTA) in HEPES buffer (0.25 M, pH = 7.0, 380 µL) were prepared. The pH of the solutions was adjusted to pH 7.0 by the addition of a NaOH solution (30%, 12.5 µL), and Tracepur water (7.5 µL) was added to give a final volume of 400 µL of the EDTA solutions. To these solutions was added a solution of the respective ^89Zr-labeled peptide conjugate (5 nmol, 9.7–13.9 MBq), and the solutions were kept at 25 °C over the course of the experiment. At predefined time points, each solution was analyzed by analytical radio-HPLC for determination of the amount of ^89Zr transchelation. Each experiment was performed at least twice, each in triplicate.
In order to directly compare and assess the kinetic inertness of the formed ^89Zr complexes of [^89Zr]Zr-29–[^89Zr]Zr-32, we performed complex challenge experiments using EDTA as the challenging agent of [^89Zr]Zr-30–[^89Zr]Zr-32 in comparison to [^89Zr]Zr-29 serving as the gold standard. […]

integrin αvβ3 = test system: integrin αvβ3; set-up: method as in PMID 28074920; conditions: cited from earlier work

CC(=O)N(O)CCCCCNC(=O)CCC(=O)N(O)CCCCCNC(=O)CCC(=O)N(O)CCCCCNC(=O)CCC(=O)N(O)CCCCCNC(=O)CCC(=O)NCc1ccc(-c2nncc3c2CCC(OC(=O)NCCCC[C@@H]2NC(=O)[C@@H](Cc4ccccc4)NC(=O)[C@H](CC(=O)O)NC(=O)CNC(=O)[C@H](CCCNC(=N)N)NC2=O)CCC3)cc1 (some centres unmarked) [[^89Zr]Zr-31, metal not drawn]
logD [1]: -2.49 ± 0.03
kinetic inertness of the 89Zr complex against EDTA challenge [2]: high resistance to the challenge

c(RGDfK)
affinity for integrin αvβ3 (integrin αvβ3): high affinity

CC(=O)N(O)CCCCCNC(=O)CCC(=O)N(O)CCCCCNC(=O)CCC(=O)N(O)CCCCCNC(=O)CCC(=O)NCc1ccc(-c2nncc3c2CCC(OC(=O)NCCCC[C@@H]2NC(=O)[C@@H](Cc4ccccc4)NC(=O)[C@H](CC(=O)O)NC(=O)CNC(=O)[C@H](CCCNC(=N)N)NC2=O)CCC3)cc1 (some centres unmarked) [[^89Zr]Zr-29, metal not drawn]
logD [1]: -2.32 ± 0.21
kinetic inertness of the 89Zr complex against EDTA challenge [2]: limited inertness and rapid transfer of the radiometal to EDTA
